{"source": "patent US20170189519A1", "binders": {"B1": {"name": "CR6261 (antibody, V domains shown)", "VH": "EVQLVESGAEVKKPGSSVKVSCKASGGPFRSYAISWVRQAPGQGPEWMGGIIPIFGTTKYAPKFQGRVTITADDFAGTVYMELSSLRSEDTAMYYCAKHMGYQVRETMDVWGKGTTVTVSS", "VL": "QSVLTQPPSVSAAPGQKVTISCSGSSSNIGNDYVSWYQQLPGTAPKLLIYDNNKRPSGIPDRFSGSKSGTSATLGITGLQTGDEANYYCATWDRRPTAYVVFGGGTKLTVLG"}}, "details_in_all_cases": "remark: other sources report otherwise", "key": {"[1]": {"target": "NY_s127H1-t2-cl18long (influenza A virus H1N1 A/New York/629/95)"}, "[2]": {"target": "Tex_s127H1-t2-cl18long (influenza A virus H1N1 A/Texas/UR06-0526/07)"}, "[3]": {"target": "188G10 (influenza A H1N1 A/Brisbane/59/2007)", "test": "ELISA, coated CR6261, P. pastoris medium"}, "[4]": {"target": "204C5 (influenza A H1N1 A/Brisbane/59/2007)", "test": "ELISA, coated CR6261, P. pastoris medium"}, "[5]": {"target": "134A4 (influenza A H1N1 A/Brisbane/59/2007)", "test": "ELISA, coated CR6261, P. pastoris medium"}, "[6]": {"target": "145F2 (influenza A H1N1 A/Brisbane/59/2007)", "test": "ELISA, coated CR6261, P. pastoris medium"}, "[7]": {"target": "137C11 (influenza A H1N1 A/Brisbane/59/2007)", "test": "ELISA, coated CR6261, P. pastoris medium"}, "[8]": {"target": "123E2 (influenza A H1N1 A/Brisbane/59/2007)", "test": "ELISA, coated CR6261, P. pastoris medium"}, "[9]": {"target": "252F5 (influenza A H1N1 A/Brisbane/59/2007)", "test": "ELISA, coated CR6261, P. pastoris medium"}, "[10]": {"target": "301F11 (influenza A H1N1 A/Brisbane/59/2007)", "test": "ELISA, coated CR6261, P. pastoris medium"}, "[11]": {"target": "213C11 (influenza A H1N1 A/Brisbane/59/2007)", "test": "ELISA, coated CR6261, P. pastoris medium"}, "[12]": {"target": "127H1 (influenza A H1N1 A/Brisbane/59/2007)", "test": "ELISA, coated CR6261, P. pastoris medium"}, "[13]": {"target": "251C8 (influenza A H1N1 A/Brisbane/59/2007)", "test": "ELISA, coated CR6261, P. pastoris medium"}, "[14]": {"target": "182C6 (influenza A H1N1 A/Brisbane/59/2007)", "test": "ELISA, coated CR6261, P. pastoris medium"}, "[15]": {"target": "20688 (influenza A H1N1 A/Brisbane/59/2007)", "test": "ELISA, coated CR6261, P. pastoris medium"}}, "data": [{"binder": "B1", "values": [{"measurement": "EC50", "setting": "[1]", "value": 0.455, "unit": "µg/mL"}, {"measurement": "EC50", "setting": "[2]", "value": 0.369, "unit": "µg/mL"}, {"measurement": "CR6261 binding signal", "setting": "[3]", "value": 143000}, {"measurement": "CR6261 binding signal", "setting": "[4]", "value": 833000}, {"measurement": "CR6261 binding signal", "setting": "[5]", "value": 456000}, {"measurement": "CR6261 binding signal", "setting": "[6]", "value": 499000}, {"measurement": "CR6261 binding signal", "setting": "[7]", "value": 417000}, {"measurement": "CR6261 binding signal", "setting": "[8]", "value": 477000}, {"measurement": "CR6261 binding signal", "setting": "[9]", "value": 422000}, {"measurement": "CR6261 binding signal", "setting": "[10]", "value": 117000}, {"measurement": "CR6261 binding signal", "setting": "[11]", "value": 667000}, {"measurement": "CR6261 binding signal", "setting": "[12]", "value": 800000}, {"measurement": "CR6261 binding signal", "setting": "[13]", "value": 270000}, {"measurement": "CR6261 binding signal", "setting": "[14]", "value": 92900}, {"measurement": "CR6261 binding signal", "setting": "[15]", "value": 286000}]}]}
